Here are results for one substance from publication PMC5016126.

The target of the test is FLAG-GLUT4 (GLUT4 tagged at the N and C termini with FLAG and His9, tags not cleaved) (UniProt P19357). The test can be described thus: SDS-PAGE and Western blot; anti-FLAG immunoblot of purified FLAG-GLUT4 before and after TEV protease cleavage (0, 3 and 24 h) in LMNG detergent micelles or in 70% egg PC, 15% POPA, 15% POPE liposomes. On the technique in general: In western blotting, separated proteins are transferred to a membrane and probed.

Substance “FLAG-GLUT4 (GLUT4 tagged at the N and C termini with FLAG and His9, tags not cleaved) (from UniProt P19357 1-509) (natural protein)” registered a stoichiometry N of 2.

Broadly, the stoichiometry N is a count of units in the complex or per binding partner.
